Data on 2 molecules can be found in paper PMC4278905, “Differential Binding of Lef1 and Msx1/2 Transcription Factors to Dkk1 CNEs Correlates with Reporter Gene Expression In Vivo”.

The data set concerns the target Lef1 (UniProt P27782 1-397). The experiment in a line: EMSA; 100 ng Lef1, 5 mM Mg2+, 1 ug poly(dI-dC); 20 mM Hepes pH 7.9, 60 mM KCl, 1 mM EDTA, 1 mM DTT, 5 mM MgCl2, 10% glycerol, 1 ug poly(dI-dC), 30 min on ice; 5% native PAGE, 0.5x TBE, 4 C. Particulars: protein: recombinant; tags: GST removed by thrombin (pGEX4T-1); label: 32P (T4 PNK, 5' end); blunt. Background: Mobility shift assays separate free from complexed probe on a gel.

Chain of Lef1 (P27782 whole entry): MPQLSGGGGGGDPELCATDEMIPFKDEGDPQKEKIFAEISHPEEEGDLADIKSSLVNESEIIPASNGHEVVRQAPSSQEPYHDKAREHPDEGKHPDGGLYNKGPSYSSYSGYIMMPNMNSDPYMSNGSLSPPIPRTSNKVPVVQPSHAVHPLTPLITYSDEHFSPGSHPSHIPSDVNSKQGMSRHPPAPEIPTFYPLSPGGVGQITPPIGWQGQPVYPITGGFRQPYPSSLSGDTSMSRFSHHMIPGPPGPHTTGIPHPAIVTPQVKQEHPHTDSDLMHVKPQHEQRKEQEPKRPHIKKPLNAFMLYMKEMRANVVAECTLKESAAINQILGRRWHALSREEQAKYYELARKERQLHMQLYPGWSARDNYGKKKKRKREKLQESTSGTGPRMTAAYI

B1: CNE195Mut(TCF/Lef) (dsDNA)
DNA 1: ATGAATGAAACTTGAATTCGCAAGGGTCA
DNA 2: TGACCCTTGCGAATTCAAGTTTCATTCAT
On to B1, for which the binding result is listed as “no binding”.

B2: CNE195 Tcf/Lef (dsDNA)
DNA 1: ATGAATGAAACTTCAAAGGGCAAGGGTCA
DNA 2: TGACCCTTGCCCTTTGAAGTTTCATTCAT
In the case of B2, the binding result was “binds”.
